Measured values: patent US20250034594A1, “RNA-GUIDED GENOME RECOMBINEERING AT KILOBASE SCALE” (THE BOARD OF TRUSTEES OF THE LELAND STANFORD JUNIOR …, priority 2021, published 2025)

B1: Homolog_E3: RecE, Pantoea dispersa; SEQ ID NO: 120 (protein, listed as Pantoea dispersa)
chain: MEPGIYYDISNEAYHSGPGISKSQLDDIARSPAIFQWRKDAPVDTEKTKALDLGTDFHCAVLEPERFADMYRVGPEVNRRTTAGKAEEKEFFEKCEKDGAVPITHDDARKVELMRGSVMAHPIAKQMIAAQGHAEASIYWHDESTGNLCRCRPDKFIPDWNWIVDVKTTADMKKFRREFYDLRYHVQDAFYTDGYAAQFGERPTFVFVVTSTTIDCGRYPTEVFFLDEETKAAGRSEYQSNLVTYSECLSRNEWPGIATLSLPHWAKELRNV
B2: Homolog_T3: RecT, Pantoea dispersa; SEQ ID NO: 119 (protein, listed as Pantoea dispersa)
chain: MSNQPPLATADLQKTQQSNQVAKTPEQTLVGFMNQPAMKSQLAAALPRHMTADRMIRIVTTEIRKTPALAQCDQSSFIGAVVQCSQLGLEPGSALGHAYLLPFGNGRSKSGQSNVQLIIGYRGMIDLARRSGQIVSLSARVVRADDEFSFEYGLDENLIHRPGDNESAPITHVYAVARLKDGGTQFEVMTAKQVEKVKAQSKASSNGPWVTHWEEMAKKTVIRRLFKYLPVSIEMQKAVVLDEKAESDVDQDNASVLSAEYSVLESGTGE
B3: Homolog_E8: RecE, Shewanella putrefaciens; SEQ ID NO: 128 (protein, listed as Shewanella putrefaciens)
chain: MGTALAQTISLDWQDTIQPAYTASGKPNFLNAQGEIVEGIYTDLPNSVYHALDAHSSTGIKTFAKGRHHYFRQYLSDVCRQRTKQQEYTFDAGTYGHMLVLEPENFHGNFMRNPVPDDFPDIELIESIPQLKAALAKSNLPVSGAKAALIERLYAFDPSLPLFEKMREKAITDYLDLRYAKYLRTDVELDEMATFYGIDTSQTREKKIEEILAISPSQPIWEKLISQHVIDHIVWDDAMRVERSTRAHPKADWLISDGYAELTIIARCPTTGLLLKVRFDWLRNDAIGVDFKTTLSTNPTKFGYQIKDLRYDLQQVFYCYVANLAGIPVKHFCFVATEYKDADNCETFELSHKKVIESTEEMFDLLDEFKEALTSGNWYGHDRSRSTWVIEV
B4: Homolog_T6: RecT, Providencia sp. MGF014; SEQ ID NO: 125 (protein, listed as Providencia sp.)
chain: MSNPPLAQSDLQKTQGTEVKVKTKDQQLIQFINQPSMKAQLAAALPRHMTPDRMIRIVTTEIRKTPALATCDMQSFVGAVVQCSQLGLEPGNALGHAYLLPFGNGKAKSGQSNVQLIIGYRGMIDLARRSNQIISISARTVRQGDNFHFEYGLNEDLTHTPSENEDSPITHVYAVARLKDGGVQFEVMTYNQVEKVRASSKAGQNGPWVSHWEEMAKKTVIRRLFKYLPVSIEMQKAVVLDEKAEANVDQENATIFEGEYEEVGTDGN
B5: Homolog_E5: RecE, Providencia stuartii; SEQ ID NO: 124 (protein, listed as Providencia stuartii)
chain: EGIYYNISNEDYHNGLGISKSQLDLINEMPAEYIWSKEAPVDEEKIKPLEIGTALHCLLLEPDEYHKRYKIGPDVNRRTNAGKEKEKEFFDMCEKEGITPITHDDNRKLMIMRDSALAHPIAKWCLEADGVSESSIYWTDKETDVLCRCRPDRIITAHNYIVDVKSSGDIEKFDYEYYNYRYHVQDAFYSDGYKEVTGITPTFLFLVVSTKIDCGKYPVRTYVMSEEAKSAGRTAYKHNLLTYAECLKTDEWAGIRTLSLPRWAKELRNE
B6: Homolog_T5: RecT, Providencia stuartii; SEQ ID NO: 123 (protein, listed as Providencia stuartii)
chain: MSNPPLAQADLQKTQGTEVKEKTKDQMLVELINKPSMKAQLAAALPRHMTPDRMIRIVTTEIRKTPALATCDMQSFVGAVVQCSQLGLEPGNALGHAYLLPFGNGKSKSGQSNVQLIIGYRGMIDLARRSGQIVSISARTVRQGDNFHFEYGLNENLTHVPGENEDSPITHVYAVARLKDGGVQFEVMTYNQIEKVRASSKAGQNGPWVSHWEEMAKKTVIRRLFKYLPVSIEMQKAVILDEKAEANIDQENATIFEGEYEEVGTDGK
B7: Homolog_E6: RecE, Providencia sp. MGF014; SEQ ID NO: 126 (protein, listed as Providencia sp.)
chain: MKEGIYYNISNEDYHNGLGISKSQLDLINEMPAEYIWSKEAPVDEEKIKPLEIGTALHCLLLEPDEYHKRYKIGPDVNRRTNVGKEKEKEFFDMCEKEGITPITHDDNRKLMIMRDSALAHPIAKWCLEADGVSESSIYWTDKETDVLCRCRPDRIITAHNYIIDVKSSGDIEKFDYEYYNYRYHVQDAFYSDGYKEVTGITPTFLFLVVSTKIDCGKYPVRTYVMSEEAKSAGRTAYKHNLLTYAECLKTDEWAGIRTLSLPRWAKELRNE
B8: Homolog_T4: RecT, Type-F symbiont of Plautia stali; SEQ ID NO: 121 (protein)
chain: MSNQPPIASADLQKTQQSKQVANKTPEQTLVGFMNQPAMKSQLAAALPRHMTADRMIRIVTTEIRKTPALATCDQSSFIGAVVQCSQLGLEPGSALGHAYLLPFGNGRSKSGQSNVQLIIGYRGMIDLARRSGQIVSLSARVVRADDEFSFEYGLDENLIHRPGDNEDAPITHVYAVARLKDGGTQFEVMTAKQVEKVKAQSKASSNGPWVTHWEEMAKKTVIRRLFKYLPVSIEMQKAVVLDEKAESDVDQDNASVLSAEYSVLEGDGGE
modifications: Type-F symbiont of Plautia stali
B9: Homolog_E7: RecE, Providencia alcalifaciens DSM 30120; SEQ ID NO: 144 (protein, listed as Providencia alcalifaciens)
chain: MNEGIYYDISNEDYHHGLGISKSQLDLIDESPADFIWHRDAPVDNEKTKALDFGTALHCLLLEPDEFQKRFRIAPEVNRRTNAGKEQEKEFLEMCEKENITPITNEDNRKLSLMKDSAMAHPIARWCLEAKGIAESSIYWKDKDTDILCRCRPDKLIEEHHWLVDVKSTADIQKFERSMYEYRYHVQDSFYSDGYKSLTGEMPVFVFLAVSTVINCGRYPVRVFVLDEQAKSVGRITYKQNLFTYAECLKTDEWAGIRTLSLPSWAKELKHEHTTAS
B10: Homolog_T7: RecT, Providencia alcalifaciens DSM 30120; SEQ ID NO: 143 (protein, listed as Providencia alcalifaciens)
chain: MKAQLAAALPKHITSDRMIRIVSTEIRKTPSLANCDIQSFIGAVVQCSQLGLEPGNALGHAYLLPFGNGKSDNGKSNVQLIIGYRGMIDLARRSGQIISISARTVRQGDNFHFEYGLNENLTHIPEGNEDSPITHVYAVARLKDEGVQFEVMTYNQIEKVRDSSKAGKNGPWVTHWEEMAKKTVIRRLFKYLPVSIEMQKAVILDEKAEANIEQDHSAIFEAEFEEVDSNGN
B11: Homolog_E4: RecE, Type-F symbiont of Plautia stali; SEQ ID NO: 122 (protein)
chain: MQPGIYYDISNEDYHGGPGISKSQLDDIAISPAIYQWRKHAPVDEEKTAALDLGTALHCLLLEPDEFSKRFEIGPEVNRRTTAGKEKEKEFMERCEAEGVTPITHDDNRKLRLMRDSAMAHPIARWMLEAQGNAEASIYWNDRDTGVLSRCRPDKIITDFNWCVDVKSTADIIKFQKDFYSYRYHVQDAFYSDGYESHFDETPTFAFLAVSTSIDCGRYPVQVFIMDQQAKDAGRAEYKRNIHTFAECLSRNEWPGIATLSLPYWAKELRNE
modifications: Type-F symbiont of Plautia stali
B12: Homolog_T8: RecT, Shewanella putrefaciens; SEQ ID NO: 127 (protein, listed as Shewanella putrefaciens)
chain: MQTAQVKLSVPHQQVYQDNFNYLSSQVVGHLVDLNEEIGYLNQIVFNSLSTASPLDVAAPWSVYGLLLNVCRLGLSLNPEKKLAYVMPSWSETGEIIMKLYPGYRGEIAIASNFNVIKNANAVLVYENDHFRIQAATGEIEHFVTSLSIDPRVRGACSGGYCRSVLMDNTIQISYLSIEEMNAIAQNQIEANMGNTPWNSIWRTEMNRVALYRRAAKDWRQLIKATPEIQSALSDTEY
B13: Homolog_E2: RecE, Pantoea brenneri; SEQ ID NO: 118 (protein, listed as Pantoea brenneri)
chain: MQPGIYYDISNEDYHRGAGISKSQLDDIAISPAIYQWRKHAPVDEEKTAALDLGTALHCLLLEPDEFSKRFQIGPEVNRRTTAGKEKEKEFIERCEAEGITPITHDDNRKLKLMRDSALAHPIARWMLEAQGNAEASIYWNDRDAGVLSRCRPDKIITEFNWCVDVKSTADIMKFQKDFYSYRYHVQDAFYSDGYESHFHETPTFAFLAVSTSIDCGRYPVQVFIMDQQAKDAGRAEYKRNIHTFAECLSRNEWPGIATLSLPFWAKELRNE

Experiments:
DYNLT1 locus = assay: mKate knock-in gene-editing assay, RecE/RecT homologs, DYNLT1 locus; format: cell-based, human; settings: HEK293 cells, MCP fusion, n=3
Experimental: (§1) Transfection HEK293T cells were seeded into 96-well plates (Corning) 12-24 hours prior to transfection at a density of 30,000 cells/well, and 250 ng of total DNA was transfected per well. HeLa and HepG2 cells were seeded into 48-well plates (Corning) one day prior to transfection at a density of 50,000 and 30,000 cells/well respectively, and 400 ng of total DNA was transfected per well. Transfections were performed with Lipofectamine 3000 (Life Technologies) following the manufacturer's instructions.
(§2) Fluorescence-activated cell sorting (FACS) mKate knock-in efficiency was analyzed on a CytoFLEX flow cytometer (Beckman Coulter; Stanford Stem Cell FACS Core). 72 hours after transfection, cells were washed once with PBS and dissociated with TrypLE Express Enzyme (Thermo Fisher Scientific). Cell suspension was then transferred to a 96-well U-bottom plate (Thermo Fisher Scientific) and centrifuged at 300×G for 5 minutes. After removing the supernatant, pelleted cells were resuspended with 50 μl 4% FBS in PBS, and cells were sorted within 30 minutes of preparation.
(§3) 15 different species of microbes having RecE/RecT proteins were selected for a screen of various RecE and RecT proteins across the microbial kingdom (Table 3). Each protein was codon-optimized and synthesized. As previously described for E. coli RecE/RecT based REDIT systems, each protein was fused via E-XTEN linker to the MCP protein with additional nuclear localization signal. mKate knock-in gene-editing assay was used to measure efficiencies at DYNLT1 locus (FIG. 26A, Table 4) and HSP90AA1 locus (FIG. 26B, Table 4).

HSP90AA1 locus = assay: mKate knock-in gene-editing assay, RecE/RecT homologs, HSP90AA1 locus; format: cell-based, human; settings: HEK293 cells, MCP fusion, n=3
Experimental: as §1, §2, §3

Molecule	Mean mKate+ (%), DYNLT1 (DYNLT1 locus) [%]	Mean mKate+ (%), HSP90AA1 (HSP90AA1 locus) [%]
B1	2.0533	6.7467
B2	11.9000	7.1200
B3	4.6567	7.0533
B4	9.0533	6.2500
B5	4.4667	6.0233
B6	10.8267	6.4300
B7	5.4100	5.9300
B8	10.4433	5.7567
B9	4.4733	5.7367
B10	5.6467	5.3700
B11	5.7200	6.2567
B12	5.0400	5.7133
B13	7.4533	6.4867
